Experimental findings from the Human Domainome abundance scans (Beltran et al. 2025) are described below.

B1: Calcium-binding protein 2, residues 155 to 219; numbered along this chain, Q9NPB3 (parent)
chain: RELRDAFREFDTNGDGRISVGELRAALKALLGERLSQREVDEILQDVDLNGDGLVDFEEFVRMMS
B2: Chromodomain-helicase-DNA-binding protein 4, residues 365 to 417; numbered along this chain, Q14839 (parent)
chain: YETDHQDYCEVCQQGGEIILCDTCPRAYHMVCLDPDMEKAPEGKWSCPHCEKE

± gives the uncertainty stated by the source.

One data set covers variants of B1. The data set can be described thus: abundance fitness (aPCA) (normalised: wild type 0, dead -1); higher = more abundant; growth selection in yeast, the domain comes from the species named. Conditions: Homo sapiens.
Turning to REARDAFREFDTNGDGRISVGELRAALKALLGERLSQREVDEILQDVDLNGDGLVDFEEFVRMMS, the abundance fitness was -0.302 ± 0.064.

Turning to RENRDAFREFDTNGDGRISVGELRAALKALLGERLSQREVDEILQDVDLNGDGLVDFEEFVRMMS, the abundance fitness is -0.345 ± 0.16.

As to REDRDAFREFDTNGDGRISVGELRAALKALLGERLSQREVDEILQDVDLNGDGLVDFEEFVRMMS, the abundance fitness is -0.497 ± 0.17.

Take REMRDAFREFDTNGDGRISVGELRAALKALLGERLSQREVDEILQDVDLNGDGLVDFEEFVRMMS: the abundance fitness was 0.012 ± 0.068.

With REERDAFREFDTNGDGRISVGELRAALKALLGERLSQREVDEILQDVDLNGDGLVDFEEFVRMMS, the abundance fitness was -0.274 ± 0.12.

Take REFRDAFREFDTNGDGRISVGELRAALKALLGERLSQREVDEILQDVDLNGDGLVDFEEFVRMMS: the abundance fitness is -0.113 ± 0.2.

Take REIRDAFREFDTNGDGRISVGELRAALKALLGERLSQREVDEILQDVDLNGDGLVDFEEFVRMMS: the abundance fitness is -0.095 ± 0.2.

On to RECRDAFREFDTNGDGRISVGELRAALKALLGERLSQREVDEILQDVDLNGDGLVDFEEFVRMMS, for which the abundance fitness was -1 ± 0.25.

GELRDAFREFDTNGDGRISVGELRAALKALLGERLSQREVDEILQDVDLNGDGLVDFEEFVRMMS: the abundance fitness was -0.204 ± 0.11.

Turning to AELRDAFREFDTNGDGRISVGELRAALKALLGERLSQREVDEILQDVDLNGDGLVDFEEFVRMMS, the abundance fitness is -0.114 ± 0.33.

In the case of TELRDAFREFDTNGDGRISVGELRAALKALLGERLSQREVDEILQDVDLNGDGLVDFEEFVRMMS, the abundance fitness is -0.007 ± 0.19.

Consider NELRDAFREFDTNGDGRISVGELRAALKALLGERLSQREVDEILQDVDLNGDGLVDFEEFVRMMS, for which the abundance fitness was determined as 0.078 ± 0.084.

With CELRDAFREFDTNGDGRISVGELRAALKALLGERLSQREVDEILQDVDLNGDGLVDFEEFVRMMS, the abundance fitness is -0.26 ± 0.16.

As to SELRDAFREFDTNGDGRISVGELRAALKALLGERLSQREVDEILQDVDLNGDGLVDFEEFVRMMS, the abundance fitness was -0.113 ± 0.1.

Take MELRDAFREFDTNGDGRISVGELRAALKALLGERLSQREVDEILQDVDLNGDGLVDFEEFVRMMS: the abundance fitness was 0.206 ± 0.21.

EELRDAFREFDTNGDGRISVGELRAALKALLGERLSQREVDEILQDVDLNGDGLVDFEEFVRMMS: the abundance fitness is 0.423 ± 0.36.

Turning to KELRDAFREFDTNGDGRISVGELRAALKALLGERLSQREVDEILQDVDLNGDGLVDFEEFVRMMS, the abundance fitness was 0.12 ± 0.37.

Turning to RDLRDAFREFDTNGDGRISVGELRAALKALLGERLSQREVDEILQDVDLNGDGLVDFEEFVRMMS, the abundance fitness is -0.677 ± 0.37.

As for RYLRDAFREFDTNGDGRISVGELRAALKALLGERLSQREVDEILQDVDLNGDGLVDFEEFVRMMS, the abundance fitness was -0.306 ± 0.15.

As to RWLRDAFREFDTNGDGRISVGELRAALKALLGERLSQREVDEILQDVDLNGDGLVDFEEFVRMMS, the abundance fitness was -0.344 ± 0.075.

RQLRDAFREFDTNGDGRISVGELRAALKALLGERLSQREVDEILQDVDLNGDGLVDFEEFVRMMS: the abundance fitness was -0.114 ± 0.064.

As to RLLRDAFREFDTNGDGRISVGELRAALKALLGERLSQREVDEILQDVDLNGDGLVDFEEFVRMMS, the abundance fitness is -0.612 ± 0.058.

As to RRLRDAFREFDTNGDGRISVGELRAALKALLGERLSQREVDEILQDVDLNGDGLVDFEEFVRMMS, the abundance fitness is -0.128 ± 0.058.

In the case of RPLRDAFREFDTNGDGRISVGELRAALKALLGERLSQREVDEILQDVDLNGDGLVDFEEFVRMMS, the abundance fitness was -0.21 ± 0.076.

For the variant RVLRDAFREFDTNGDGRISVGELRAALKALLGERLSQREVDEILQDVDLNGDGLVDFEEFVRMMS, the abundance fitness was -0.357 ± 0.091.

Consider RHLRDAFREFDTNGDGRISVGELRAALKALLGERLSQREVDEILQDVDLNGDGLVDFEEFVRMMS, for which the abundance fitness was -0.086 ± 0.13.

As to RTLRDAFREFDTNGDGRISVGELRAALKALLGERLSQREVDEILQDVDLNGDGLVDFEEFVRMMS, the abundance fitness is -0.093 ± 0.067.

RGLRDAFREFDTNGDGRISVGELRAALKALLGERLSQREVDEILQDVDLNGDGLVDFEEFVRMMS: the abundance fitness was -0.15 ± 0.096.

Take RALRDAFREFDTNGDGRISVGELRAALKALLGERLSQREVDEILQDVDLNGDGLVDFEEFVRMMS: the abundance fitness is -0.509 ± 0.084.

As for RCLRDAFREFDTNGDGRISVGELRAALKALLGERLSQREVDEILQDVDLNGDGLVDFEEFVRMMS, the abundance fitness was -0.472 ± 0.19.

Take RKLRDAFREFDTNGDGRISVGELRAALKALLGERLSQREVDEILQDVDLNGDGLVDFEEFVRMMS: the abundance fitness was -0.158 ± 0.1.

Regarding RSLRDAFREFDTNGDGRISVGELRAALKALLGERLSQREVDEILQDVDLNGDGLVDFEEFVRMMS, the abundance fitness is -0.355 ± 0.13.

Variants of B2 are the subject of a further data set. The data set is described as above. Conditions: Homo sapiens.
As to E53I, the abundance fitness was -0.335 ± 0.39.

As for E53W, the abundance fitness turned out to be 0.113 ± 0.22.

Consider E53A, for which the abundance fitness was -0.207 ± 0.16.

Turning to E53V, the abundance fitness is -0.356 ± 0.19.

E53L: the abundance fitness was -0.133 ± 0.32.

For E53D, the abundance fitness was -0.551 ± 0.45.

Consider E53S, for which the abundance fitness was -0.023 ± 0.16.

As for E53H, the abundance fitness was -0.378 ± 0.33.

Take E53Y: the abundance fitness was -0.323 ± 0.39.

Consider E53C, for which the abundance fitness was -0.263 ± 0.25.

Regarding E53G, the abundance fitness was -0.252 ± 0.13.

On to E53N, for which the abundance fitness was -0.57 ± 0.38.

For E53R, the abundance fitness is -0.04 ± 0.15.

For the variant E53T, the abundance fitness is -0.717 ± 0.41.

As to E51S, the abundance fitness is -0.127 ± 0.11.

In the case of E51D, the abundance fitness is -0.111 ± 0.28.

As for E51Q, the abundance fitness was -0.371 ± 0.2.

As to E51T, the abundance fitness was -0.174 ± 0.15.

In the case of E51M, the abundance fitness is -0.03 ± 0.15.

For the variant E51Y, the abundance fitness is -0.221 ± 0.23.

Consider E51I, for which the abundance fitness was -0.331 ± 0.22.

E51F: the abundance fitness is -0.392 ± 0.2.

Turning to E51L, the abundance fitness was -0.275 ± 0.11.

On to E51P, for which the abundance fitness was -0.007 ± 0.12.

In the case of E51W, the abundance fitness was -0.338 ± 0.11.

Consider E51N, for which the abundance fitness is -0.357 ± 0.48.

Turning to E51C, the abundance fitness is -0.227 ± 0.13.

For the variant E51G, the abundance fitness is 0.132 ± 0.091.

Consider K44L, for which the abundance fitness was -0.145 ± 0.1.

In the case of K44T, the abundance fitness turned out to be 0.218 ± 0.15.

As to K44G, the abundance fitness came out at 0.164 ± 0.095.

On to K44Y, for which the abundance fitness is -0.31 ± 0.18.

Regarding K44W, the abundance fitness was found to be 0.098 ± 0.12.

Consider K44A, for which the abundance fitness was -0.017 ± 0.15.

Take K44Q: the abundance fitness came to 0.309 ± 0.13.

For the variant K44C, the abundance fitness is -0.152 ± 0.14.

Take K44H: the abundance fitness was -0.3 ± 0.21.

Take K44P: the abundance fitness came to 0.062 ± 0.14.

Turning to K44R, the abundance fitness is 0.05 ± 0.097.

In the case of K44E, the abundance fitness amounted to 0.079 ± 0.14.

Regarding K44I, the abundance fitness is -0.427 ± 0.3.

With K44F, the abundance fitness is -0.028 ± 0.16.

K44N: the abundance fitness is -0.373 ± 0.29.

As to K44V, the abundance fitness was -0.109 ± 0.11.

Regarding K44M, the abundance fitness was -0.066 ± 0.12.

In the case of K44S, the abundance fitness was determined as 0.102 ± 0.11.

Turning to E42G, the abundance fitness was -0.114 ± 0.11.

For the variant E42L, the abundance fitness was -0.087 ± 0.11.

Turning to E42H, the abundance fitness is -0.394 ± 0.21.

Take E42I: the abundance fitness is -0.261 ± 0.23.

As for E42V, the abundance fitness came out at 0.066 ± 0.11.

For E42T, the abundance fitness came out at 0.066 ± 0.17.

Turning to E42F, the abundance fitness is -0.315 ± 0.22.

On to E42D, for which the abundance fitness was -0.182 ± 0.16.

On to E42P, for which the abundance fitness came to 0.052 ± 0.18.

As to E42S, the abundance fitness is -0.129 ± 0.13.

Take E42Y: the abundance fitness is -0.17 ± 0.27.

In the case of E42W, the abundance fitness was -0.49 ± 0.14.

Turning to E42K, the abundance fitness came to 0.026 ± 0.18.

As for E42M, the abundance fitness is -0.069 ± 0.15.

Take E42Q: the abundance fitness was -0.012 ± 0.17.

Regarding G43W, the abundance fitness was -0.164 ± 0.11.

Regarding G43C, the abundance fitness was -0.217 ± 0.15.

Regarding G43L, the abundance fitness was -0.232 ± 0.099.

With G43P, the abundance fitness was -0.209 ± 0.15.

For G43S, the abundance fitness is -0.099 ± 0.12.

Take G43A: the abundance fitness came out at 0.061 ± 0.12.

For the variant G43Q, the abundance fitness was -0.078 ± 0.15.

G43T: the abundance fitness was -0.272 ± 0.15.

G43R: the abundance fitness is -0.09 ± 0.086.

As to G43K, the abundance fitness was -0.012 ± 0.2.

Regarding G43E, the abundance fitness was 0.179 ± 0.15.

For the variant G43D, the abundance fitness was -0.164 ± 0.19.

For G43N, the abundance fitness was -0.076 ± 0.21.

Consider G43M, for which the abundance fitness was -0.151 ± 0.14.

G43V: the abundance fitness is -0.375 ± 0.12.

Consider G43F, for which the abundance fitness was -0.35 ± 0.18.

As to G43I, the abundance fitness is -0.382 ± 0.22.

For the variant G43H, the abundance fitness was -0.505 ± 0.26.

For K52L, the abundance fitness is -0.088 ± 0.11.

With K52N, the abundance fitness is -0.007 ± 0.21.

In the case of K52T, the abundance fitness was 0.06 ± 0.16.

On to K52C, for which the abundance fitness is -0.105 ± 0.16.

With K52I, the abundance fitness was -0.586 ± 0.21.

For K52A, the abundance fitness is -0.233 ± 0.12.

With K52Q, the abundance fitness is -0.134 ± 0.18.
